Data from US20140087426.

Assays:
Experiment in all cases: cell_activity
[1] = tested on: spexin TALEN right (synthetic (Xanthomonas TALE)); conditions: 33/36, as pair
[2] = tested on: tnikb TALEN right (synthetic (Xanthomonas TALE)); conditions: 18/39, as pair
[3] = tested on: kiss2 TALEN right (synthetic (Xanthomonas TALE)); conditions: 69/69, as pair
[4] = tested on: miR-214 TALEN right (synthetic (Xanthomonas TALE)); conditions: 25/47, as pair
[5] = tested on: miR-451 TALEN right (synthetic (Xanthomonas TALE)); conditions: 2/47, as pair, 22-bp spacer
[6] = tested on: kiss1 TALEN right (synthetic (Xanthomonas TALE)); conditions: 32/40, as pair
[7] = tested on: gria3a TALEN right (synthetic (Xanthomonas TALE)); conditions: 49/55, as pair, zebrafish embryos
[8] = tested on: kiss2r TALEN right (synthetic (Xanthomonas TALE)); conditions: 3/45, as pair, 21-bp spacer
[9] = tested on: kiss1r TALEN right (synthetic (Xanthomonas TALE)); conditions: 22/43, as pair
[10] = tested on: miR-1-1 TALEN right (synthetic (Xanthomonas TALE)); conditions: 64/66, as pair
[11] = tested on: miR-1-2 TALEN right (synthetic (Xanthomonas TALE)); conditions: 34/41, as pair
[12] = tested on: gnrh3 TALEN right (synthetic (Xanthomonas TALE)); conditions: 6/33, as pair, 21-bp spacer
[13] = tested on: kiss2r TALEN left (synthetic (Xanthomonas TALE)); conditions: 3/45, as pair, 21-bp spacer
[14] = tested on: kiss1 TALEN left (synthetic (Xanthomonas TALE)); conditions: 32/40, as pair
[15] = tested on: miR-1-1 TALEN left (synthetic (Xanthomonas TALE)); conditions: 64/66, as pair
[16] = tested on: miR-1-2 TALEN left (synthetic (Xanthomonas TALE)); conditions: 34/41, as pair
[17] = tested on: miR-451 TALEN left (synthetic (Xanthomonas TALE)); conditions: 2/47, as pair, 22-bp spacer
[18] = tested on: gria3a TALEN left CLRG (synthetic (Xanthomonas TALE)); conditions: mean of 3
[19] = tested on: gria3a TALEN left -G2 (synthetic (Xanthomonas TALE)); conditions: mean of 3, nearly abolished
[20] = tested on: gria3a TALEN left C1G (synthetic (Xanthomonas TALE)); conditions: mean of 3
[21] = tested on: gria3a TALEN left A7C (synthetic (Xanthomonas TALE)); conditions: mean of 3
[22] = tested on: gria3a TALEN left -C1 (synthetic (Xanthomonas TALE)); conditions: mean of 3
[23] = tested on: gria3a TALEN left C1A (synthetic (Xanthomonas TALE)); conditions: mean of 3
[24] = tested on: gria3a TALEN left T8G (synthetic (Xanthomonas TALE)); conditions: mean of 3
[25] = tested on: gria3a TALEN left CLRT (synthetic (Xanthomonas TALE)); conditions: mean of 3
[26] = tested on: gria3a TALEN left C1T (synthetic (Xanthomonas TALE)); conditions: mean of 3
[27] = tested on: gria3a TALEN left CLRA (synthetic (Xanthomonas TALE)); conditions: mean of 3
[28] = tested on: gria3a TALEN left G2A (synthetic (Xanthomonas TALE)); conditions: mean of 3
[29] = tested on: gria3a TALEN left T15G (synthetic (Xanthomonas TALE)); conditions: mean of 3
[30] = tested on: gria3a TALEN left -T8 (synthetic (Xanthomonas TALE)); conditions: 0/64 in 3
[31] = tested on: gria3a TALEN left A7G (synthetic (Xanthomonas TALE)); conditions: mean of 3
[32] = tested on: gria3a TALEN left A7T (synthetic (Xanthomonas TALE)); conditions: mean of 3
[33] = tested on: gria3a TALEN left (synthetic (Xanthomonas TALE)); conditions: mean of 3; with right TALEN, zebrafish embryos; Table 4: 49/55
[34] = tested on: gria3a TALEN left -A7 (synthetic (Xanthomonas TALE)); conditions: mean of 3, nearly abolished
[35] = tested on: gria3a TALEN left T15C (synthetic (Xanthomonas TALE)); conditions: mean of 3
[36] = tested on: gria3a TALEN left T8A (synthetic (Xanthomonas TALE)); conditions: 0/32 in 3
[37] = tested on: gria3a TALEN left T15A (synthetic (Xanthomonas TALE)); conditions: mean of 3
[38] = tested on: gria3a TALEN left -T15 (synthetic (Xanthomonas TALE)); conditions: mean of 3
[39] = tested on: gria3a TALEN left G2C (synthetic (Xanthomonas TALE)); conditions: mean of 3
[40] = tested on: gria3a TALEN left T8C (synthetic (Xanthomonas TALE)); conditions: mean of 3
[41] = tested on: gria3a TALEN left G2T (synthetic (Xanthomonas TALE)); conditions: mean of 3
[42] = tested on: kiss2 TALEN left (synthetic (Xanthomonas TALE)); conditions: 69/69, as pair
[43] = tested on: miR-214 TALEN left (synthetic (Xanthomonas TALE)); conditions: 25/47, as pair
[44] = tested on: tnikb TALEN left (synthetic (Xanthomonas TALE)); conditions: 18/39, as pair
[45] = tested on: gnrh3 TALEN left (synthetic (Xanthomonas TALE)); conditions: 6/33, as pair, 21-bp spacer
[46] = tested on: kiss1r TALEN left (synthetic (Xanthomonas TALE)); conditions: 22/43, as pair
[47] = tested on: spexin TALEN left (synthetic (Xanthomonas TALE)); conditions: 33/36, as pair

For “AATGTCATGCAATGTTA (double strand) [spexin right site]”, which activity (% mutant alleles) [1] is on record?
The activity (% mutant alleles) was 91.7.

With “ATTTTTGAGCTGGTGGA (double strand) [tnikb right site]” as the sequence, how does the activity (% mutant alleles) [2] read?
Its activity (% mutant alleles) is 46.2.

Which activity (% mutant alleles) [3] does the source give for “CAGCTATGAGAGCAATA (double strand) [kiss2 right site]” here?
The activity (% mutant alleles) was 100.

With “CAGGCAGACAGATGGCA (double strand) [miR-214 right site]” as the sequence, how does the activity (% mutant alleles) [4] read?
Its activity (% mutant alleles) is 53.2.

How did the activity (% mutant alleles) [5] turn out when “CTGAGTTTAGTAATGGA (double strand) [miR-451 right site]” was run?
Its activity (% mutant alleles) is 4.3.

Which activity (% mutant alleles) [6] does the source give for “CTTAGAAGGTAAGTTCA (double strand) [kiss1 right site]” here?
The activity (% mutant alleles) was 80.

For “GAGTTTCTGCTCTTTA (double strand) [gria3a right site]”, which activity (% mutant alleles) [7] is on record?
The activity (% mutant alleles) was 89.1.

“GATGAAGACGGTTACAAA (double strand) [kiss2r right site]” was tested. Which activity (% mutant alleles) [8] did it give?
The activity (% mutant alleles) was 6.7.

With “GTAATAATAGAACCTCA (double strand) [kiss1r right site]” as the sequence, how does the activity (% mutant alleles) [9] read?
The activity (% mutant alleles) was 51.2.

With “GTATGTATCCCAGGTGA (double strand) [miR-1-1 right site]” as the sequence, how does the activity (% mutant alleles) [10] read?
The activity (% mutant alleles) was 97.

With “GTATGTATTCTTGGTCA (double strand) [miR-1-2 right site]” as the sequence, how does the activity (% mutant alleles) [11] read?
The activity (% mutant alleles) was 82.9.

With “GTCCAGTTGTTGCTGTTA (double strand) [gnrh3 right site]” as the sequence, how does the activity (% mutant alleles) [12] read?
Its activity (% mutant alleles) is 18.2.

“TAACCTAATAGTCATCTA (double strand) [kiss2r left site]” was tested. Which activity (% mutant alleles) [13] did it give?
The activity (% mutant alleles) was 6.7.

How did the activity (% mutant alleles) [14] turn out when “TACACACAAACCCCTCT (double strand) [kiss1 left site]” was run?
The activity (% mutant alleles) was 80.

Which activity (% mutant alleles) [15] does the source give for “TATGAACAAGAGCAGC (double strand) [miR-1-1 left site]” here?
Its activity (% mutant alleles) is 97.

With “TATGAACATATAAAAGC (double strand) [miR-1-2 left site]” as the sequence, how does the activity (% mutant alleles) [16] read?
Its activity (% mutant alleles) is 82.9.

For “TCGCTGTGACAGAGAGA (double strand) [miR-451 left site]”, which activity (% mutant alleles) [17] is on record?
The activity (% mutant alleles) was 4.3.

With “TCGTCCAATAGCTTCTC (double strand) [gria3a left site]” as the sequence, how does the activity (% mutant alleles) [18] read?
The activity (% mutant alleles) was 2.2.

And the activity (% mutant alleles) [19]?
Its activity (% mutant alleles) is 1.6.

And the activity (% mutant alleles) [20]?
Its activity (% mutant alleles) is 79.2.

And the activity (% mutant alleles) [21]?
The activity (% mutant alleles) was 40.1.

What about the activity (% mutant alleles) [22] of the same sequence?
The activity (% mutant alleles) was 30.7.

And the activity (% mutant alleles) [23]?
Its activity (% mutant alleles) is 33.3.

And the activity (% mutant alleles) [24]?
Its activity (% mutant alleles) is 14.6.

What about the activity (% mutant alleles) [25] of the same sequence?
The activity (% mutant alleles) was 63.1.

What about the activity (% mutant alleles) [26] of the same sequence?
The activity (% mutant alleles) was 2.1.

What about the activity (% mutant alleles) [27] of the same sequence?
Its activity (% mutant alleles) is 76.

What about the activity (% mutant alleles) [28] of the same sequence?
The activity (% mutant alleles) was 17.9.

What about the activity (% mutant alleles) [29] of the same sequence?
Its activity (% mutant alleles) is 65.6.

And the activity (% mutant alleles) [30]?
The activity (% mutant alleles) was 0.

What about the activity (% mutant alleles) [31] of the same sequence?
Its activity (% mutant alleles) is 82.3.

What about the activity (% mutant alleles) [32] of the same sequence?
Its activity (% mutant alleles) is 71.9.

What about the activity (% mutant alleles) [33] of the same sequence?
Its activity (% mutant alleles) is 84.2.

And the activity (% mutant alleles) [34]?
Its activity (% mutant alleles) is 0.5.

What about the activity (% mutant alleles) [35] of the same sequence?
The activity (% mutant alleles) was 3.1.

What about the activity (% mutant alleles) [36] of the same sequence?
The activity (% mutant alleles) was 0.

And the activity (% mutant alleles) [37]?
Its activity (% mutant alleles) is 20.8.

What about the activity (% mutant alleles) [38] of the same sequence?
Its activity (% mutant alleles) is 71.9.

And the activity (% mutant alleles) [39]?
The activity (% mutant alleles) was 12.1.

What about the activity (% mutant alleles) [40] of the same sequence?
Its activity (% mutant alleles) is 21.9.

What about the activity (% mutant alleles) [41] of the same sequence?
Its activity (% mutant alleles) is 52.6.

Which activity (% mutant alleles) [42] does the source give for “TGATTCTCTTCATGTCTG (double strand) [kiss2 left site]” here?
Its activity (% mutant alleles) is 100.

With “TGCAGAACTTCCTGCAC (double strand) [miR-214 left site]” as the sequence, how does the activity (% mutant alleles) [43] read?
Its activity (% mutant alleles) is 53.2.

With “TGTTATTTTCTCCCCT (double strand) [tnikb left site]” as the sequence, how does the activity (% mutant alleles) [44] read?
Its activity (% mutant alleles) is 46.2.

“TGTTTTAGTTTTAGCATG (double strand) [gnrh3 left site]” was tested. Which activity (% mutant alleles) [45] did it give?
The activity (% mutant alleles) was 18.2.

“TTCATGTGCAAATTTGT (double strand) [kiss1r left site]” was tested. Which activity (% mutant alleles) [46] did it give?
Its activity (% mutant alleles) is 51.2.

“TTTGTGTCCCATTCCT (double strand) [spexin left site]” was tested. Which activity (% mutant alleles) [47] did it give?
The activity (% mutant alleles) was 91.7.
